Results from US12702692B2, “Therapeutic use of calcium-activated chloride channel peptide activator” (CENTRE NATIONAL DE LA RECHERCHE SCIENTIFIQUE, priority 2020, dated 2026).

Molecular target: T1, TMEM16A (Mus musculus, UniProt Q8BHY3)
T1 construct: expressed in transfected cells; host or cells: HEK293T
T1 sequence (Q8BHY3 1-960): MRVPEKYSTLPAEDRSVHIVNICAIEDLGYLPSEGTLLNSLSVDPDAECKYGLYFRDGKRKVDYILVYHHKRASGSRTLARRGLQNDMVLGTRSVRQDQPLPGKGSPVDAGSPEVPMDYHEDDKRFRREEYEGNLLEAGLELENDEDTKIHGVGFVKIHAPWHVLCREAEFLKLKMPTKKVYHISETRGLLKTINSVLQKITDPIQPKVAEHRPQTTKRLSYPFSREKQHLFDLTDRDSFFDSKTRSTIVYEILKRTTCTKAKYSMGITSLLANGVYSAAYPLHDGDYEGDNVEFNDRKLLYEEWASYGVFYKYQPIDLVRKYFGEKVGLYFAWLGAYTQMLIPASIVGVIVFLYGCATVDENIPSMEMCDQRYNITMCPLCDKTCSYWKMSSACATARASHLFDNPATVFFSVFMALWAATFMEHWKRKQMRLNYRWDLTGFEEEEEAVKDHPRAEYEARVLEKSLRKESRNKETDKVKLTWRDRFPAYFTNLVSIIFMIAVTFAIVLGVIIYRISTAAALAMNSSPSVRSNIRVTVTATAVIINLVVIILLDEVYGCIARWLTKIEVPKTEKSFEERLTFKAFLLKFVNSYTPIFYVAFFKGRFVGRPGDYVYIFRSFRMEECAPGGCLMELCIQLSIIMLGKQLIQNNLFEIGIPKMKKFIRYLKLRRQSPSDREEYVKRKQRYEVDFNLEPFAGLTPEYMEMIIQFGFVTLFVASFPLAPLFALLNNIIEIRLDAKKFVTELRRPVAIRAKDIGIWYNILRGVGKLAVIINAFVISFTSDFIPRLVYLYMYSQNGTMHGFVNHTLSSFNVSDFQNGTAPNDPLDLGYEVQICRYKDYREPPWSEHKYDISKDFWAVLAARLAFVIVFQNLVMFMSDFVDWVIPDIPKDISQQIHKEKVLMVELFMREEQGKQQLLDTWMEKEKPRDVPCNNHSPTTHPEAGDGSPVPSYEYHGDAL
Assay: Whole-cell patch-clamp of HEK293T cells expressing TMEM16A
Type: cell-based
Description: mTMEM16A (kindly provided by Dr Lily Yeh Jan) and hKCNE1 cDNA were subcloned in pIRES2eGFP, pXOOM, pcDNA3.1, pCDNA3.1-GFP and pCMV-HA vectors. Truncations and mutations on KCNE1 were generated by PCR. For SiMPull experiments, HA-tags were fused to the N-terminus of sequences, whereas GFP-tags were fused to C-terminal part. HEK293T and PCT cells were transiently co-transfected using Lipofectamine 2000 or the calcium phosphate method with a total amount of 1 and 3.5 μg of DNA, respectively, and seeded on 18 mm diameter coverslips. HEK cells were maintained in DMEM with 5% FBS on poly-L-lysine-coated glass coverslips in 12 well plates. PCT cells from wild type and knock-out mice were microdissected as described previously and maintained in F12 (Gibco) on collagen-coated glass coverslips.
HEK293T and PCT cell electrophysiology was performed 24-48 h after transfection. For whole-cell patch-clamp experiments cells were recorded in a bath solution containing (in mM) 150 NaCl, 5 KCl, 2 CaCl2 and 10 HEPES, pH 7.4 and 0.05% BSA. The glass pipettes (2-5 MΩ of resistance) were filled with (in mM) 5 NaCl, 135 CsCl, 2 MgCl2, 5 EGTA, 10 HEPES, pH 7.3. Cells were recorded either after incubation of 30 min with the peptide or during perfusion with the peptide. Total calcium concentration was calculated with Maxchelator (maxchelator.standford.edu) for a temperature of 20° C. HEK293T and PCT cells were recorded at room temperature in voltage-clamp mode using an Axopatch 200A (Molecular Devices) amplifier. Signals were filtered at 10 kHz and digitalized at 20 kHz. Whole-cell currents were elicited by voltage-ramps (from −100 to +100 mV, 1 s) and I-V stimulation pulses (from −100 to +100 mV in 20 mV increments, 1 s each pulse), holding the cells at −80 mV. Current densities were measured at +100 mV. Cell recordings, data acquisition and analysis of electrophysiology experiments were performed using pClamp software (Molecular Devices).

LARRSPRSSDGKL (SEQ ID NO: 2) (amino acid residues between positions 30 to 42 of the human KCNE1 protein sequence) [N13ter]
current density elicited by peptide at +100 mV (100 μM peptide, HEK293T cells expressing TMEM16A alone): 15.48±3.25 pA/pF
potency on TMEM16A compared with rat N13 peptide (100 μM, HEK293T expressing TMEM16A and Xenopus oocytes (FIG. 9)): more potent
effect of peptide application on TMEM16A current (HEK293T cells expressing TMEM16A alone, 100 μM for Nter13, S38G and rat peptides): induces TMEM16A current properties
